Experimental data as given in the supplement of paper PMC7125110.
± gives the standard error. For part of these data: Variants at the floor of the assay were thinned out.

B1: glmS ribozyme (parent)
chain: AUAAAAGCGCCAGAACUACAGAAAUGUAGUUGACGAGGAGGAGGUUUAUCGAAUUUUCGGCGGAUGCCUCCAAA

Legend:
Details in all cases: with glucosamine-6-phosphate
[1] = variants of: B1; test: kcat; higher = faster cleavage; RNA array
Summary of the method: (§1)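 On sequenced MiSeq chips, barcoded ribozyme variants were made in situ by E. coli RNA polymerase and followed at 37 °C through a hybridised Cy3 probe. Glucosamine-6-phosphate was flowed in at 40 μM to 10 mM in HEPES/KCl/Mg(OAc)2 buffer. Exponential fits to normalised per-tile medians gave kobs, and weighted Michaelis–Menten fits gave kcat and KM.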

[2] = variants of: B1; test: self-cleavage kobs at 2500 uM GlcN6P; higher = faster cleavage; RNA array
Summary of the method: as §1

[3] = variants of: B1; test: self-cleavage kobs at 10000 uM GlcN6P; higher = faster cleavage; RNA array
Summary of the method: as §1

[4] = variants of: B1; test: KM; higher = weaker cofactor use; RNA array
Summary of the method: as §1

[5] = variants of: B1; test: self-cleavage kobs at 40 uM GlcN6P; higher = faster cleavage; RNA array
Summary of the method: as §1

[6] = variants of: B1; test: self-cleavage kobs at 160 uM GlcN6P; higher = faster cleavage; RNA array
Summary of the method: as §1

[7] = variants of: B1; test: self-cleavage kobs at 640 uM GlcN6P; higher = faster cleavage; RNA array
Summary of the method: as §1

Variant | kcat [1] [s⁻¹] | self-cleavage kobs at 2500 uM GlcN6P [2] [s⁻¹] | self-cleavage kobs at 10000 uM GlcN6P [3] [s⁻¹] | KM [4] [µM] | self-cleavage kobs at 40 uM GlcN6P [5] [s⁻¹] | self-cleavage kobs at 160 uM GlcN6P [6] [s⁻¹] | self-cleavage kobs at 640 uM GlcN6P [7] [s⁻¹]
U55A G59A | 6.57e-05 ± 1.4e-05 | 5.76e-05 ± 1.7e-05 | 5.69e-05 ± 1.3e-05 |  |  |  | 
U54C G66U | 0.0027 ± 0.00084 | 0.00132 ± 0.0002 | 0.00199 ± 0.00024 | 3380 ± 1600 | 6.62e-05 ± 1.2e-05 | 0.000108 ± 2.3e-05 | 0.000359 ± 6.3e-05
G51A G59U | < 1e-05 |  |  | 157 ± 36 | < 1e-05 |  | < 1e-05
C50U U54A C70U | 3.48e-05 ± 1e-05 | 2.99e-05 ± 1.5e-05 |  |  |  |  | 6e-05 ± 2.4e-05
C50U G63C | < 1e-05 |  | < 1e-05 |  |  |  | 
C50U G63U | 1.75e-05 ± 7.2e-06 |  |  |  | < 1e-05 |  | 
C50U G63A | < 1e-05 |  |  |  | < 1e-05 | < 1e-05 | 
G51U C68G | 4.24e-05 ± 1.1e-05 | 4.27e-05 ± 1e-05 |  |  |  |  | 5.2e-05 ± 9.7e-06
G51U C61G | < 1e-05 |  |  |  |  |  | 
U55C U65C | 0.000217 ± 5e-05 | 0.00011 ± 1.9e-05 | 0.000217 ± 3.1e-05 |  |  |  | 7.31e-05 ± 1.1e-05
C50U C68A C71U | 2.67e-05 ± 9.8e-06 |  |  |  |  |  | 
A52G G62U | < 1e-05 |  |  |  |  |  | 
A53C C70A | 5.94e-05 ± 1.5e-05 | 6.85e-05 ± 1.7e-05 | 5.03e-05 ± 1.1e-05 |  | < 1e-05 |  | 
A52U U69A | 5.73e-05 ± 1.5e-05 | 7.38e-05 ± 1.2e-05 | 3.63e-05 ± 1.2e-05 |  |  |  | 4.77e-05 ± 1.1e-05
G51A C61A | 1.66e-05 ± 3.1e-06 |  |  |  | < 1e-05 |  | 
U54G U65C | 0.00111 ± 0.0001 | 0.000567 ± 9.8e-05 | 0.00091 ± 0.00012 | 2390 ± 350 |  | 7.61e-05 ± 1.2e-05 | 0.000211 ± 3.4e-05
U55G U56G | 0.0156 ± 0.0072 | 0.00561 ± 0.00078 | 0.0215 ± 0.0038 |  | 0.000205 ± 3e-05 | 0.000797 ± 0.00014 | 0.00307 ± 0.00039
U55G G59C | 1.2e-05 ± 2.5e-06 |  |  |  |  |  | 
A53U G60A | < 1e-05 |  |  |  | < 1e-05 |  | 
U54G G59U | 3.86e-05 ± 1.5e-06 | 3.03e-05 ± 9.3e-06 | 3.71e-05 ± 6.4e-06 | 544 ± 170 |  |  | 
U54G G59A | 9.1e-05 ± 6.5e-06 | 6.93e-05 ± 2.3e-05 | 8.23e-05 ± 3e-05 | 858 ± 300 |  |  | 
U54A U69A | 0.00011 ± 2.2e-05 | 0.000141 ± 2.3e-05 | 8.28e-05 ± 1.5e-05 |  |  | 0.000107 ± 1.5e-05 | 0.000109 ± 1.9e-05
